{
  "source": "the nanobody polyreactivity screen of Harvey et al. (2022)",
  "data": [
    {"assay": "yeast display, Sf9 membrane polyspecificity reagent, FACS + sequencing; frameworks hold sequencing errors", "outline": "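Polyreactivity labels are assigned by the sorting gate from which each nanobody was recovered. The gates were low and high (top ~1%), set on anti-HA fluorescence for expression and streptavidin fluorescence for reagent binding. Before sorting, galactose-induced (36–48 hours) yeast display cells were stained for 1 hour at 4 °C with 10% biotinylated, detergent-solubilized Sf9 membrane reagent.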", "values": [
      {"sequence": "QVQLVESGGGLVQAGGSLRLSCAASGSTFLGNAMGWYRQAPGKERELVATITGSSGSTYYADSVKGRFTISRDNAKNTVYLQMNSLKPEDTAVYYCNTVYNYWDGYDYWGQGSQVTVSS", "polyreactivity (PSR sort gate)": "low polyreactivity"},
      {"sequence": "QVQLVESGGGLVQAGGSLRLSCAASGSTFLGYAMGWYRQAPGKERELVAAITYSGGGTYYADSVKGRFTISRDNAKNTVYLQMNSLKPEDTAVYYCNADVSWSYSVYREYGMDYWGQGTQVTVSS", "polyreactivity (PSR sort gate)": "low polyreactivity"},
      {"sequence": "QVQLVESGGGLVQAGGSLRLSCAASGSTFLGYTMGWYRQAPGKERELVASITNSGSTDYADSVKGRFTISRDNAKNTVYLHMNSLKPEDTAVYYCAAQFYRYPSKNDYWGQGTQVTVSS", "polyreactivity (PSR sort gate)": "high polyreactivity"},
      {"sequence": "QVQLVESGGGLVQAGGSLRLSCAASGSTFLINAMGWYRQAPRKERELVATISSGGSTYYADSVKGRFTISRDNAKNTVYLQMNSLKPEDTAVYSCAADPDRTAYDYWGQGTQVTVSS", "polyreactivity (PSR sort gate)": "low polyreactivity"},
      {"sequence": "QVQLVESGGGLVQAGGSLRLSCAASGSTFLKYTMGWYRQAPRKDRELVAGITRSSRSTYYADSVKGRFTISRDNAKYTVYLQMNSLKPEDTAVYYCAATVYLYTDLAYYWFGYWGQGTQVTVAS", "polyreactivity (PSR sort gate)": "high polyreactivity"},
      {"sequence": "QVQLVESGGGLVQAGGSLRLSCAASGSTFLLNAMGWYRQAPGKERELVAAITWNGGSTYYADSVKGRFTISRDNAKNTVYLQMNSLKPEDTAVYYCAADWSWQWRYGYDYWGQGTQVTVSS", "polyreactivity (PSR sort gate)": "low polyreactivity"},
      {"sequence": "QVQLVESGGGLVQAGGSLRLSCAASGSTFLNNAMGWYRQAPGKERELVASIRYSSARTYYADTVKGRFTISRDNAKNTVYLQMNSLKPEDTAVYYCAADRWVGYRVYKYDYWGQGTQVTVSS", "polyreactivity (PSR sort gate)": "high polyreactivity"},
      {"sequence": "QVQLVESGGGLVQAGGSLRLSCAASGSTFLPNAMGWYRQAPGKERELVATITFDGGSTYYADSVKGRFTISRDNAKNTVYLQMNSLKPEDTAVYYCNTVELYWRGYDYWGQGTQVTVSS", "polyreactivity (PSR sort gate)": "high polyreactivity"},
      {"sequence": "QVQLVESGGGLVQAGGSLRLSCAASGSTFLRYAMGWARQAPGKERELVARISGGGTTYYADSVKGRFTISRDNAKNTVYLQMNSLKPEDTAVYYCAARAIYWSRYDYWGQGTQVTVSS", "polyreactivity (PSR sort gate)": "high polyreactivity"},
      {"sequence": "QVQLVESGGGLVQAGGSLRLSCAASGSTFLSYAMGWYRQAPGHERELVAAISIAGSTYYADSVKGRFTISRANAKNTVYLQMHSLKPEDTAVDYCRRYYRIYDYWGQGTQVTVSS", "polyreactivity (PSR sort gate)": "low polyreactivity"},
      {"sequence": "QVQLVESGGGLVQAGGSLRLSCAASGSTFLSYAMGWYRQAPGKERELVAAISWSGGRTYYADSVKGRFTISRDNAKNTVYLQMNSLKPEDTAVYYCAARHVPFTKHEYEYWGQGTQVTVSS", "polyreactivity (PSR sort gate)": "low polyreactivity"},
      {"sequence": "QVQLVESGGGLVQAGGSLRLSCAASGSTFLTNAMGWYRQAPGKERELVAAIRTSGGSTYYADSVKGRFTISRDNAKNTVYLQMNSLKPEDTAVYYCAASYRRRRFSEYYYWGQGTQVTVSS", "polyreactivity (PSR sort gate)": "high polyreactivity"},
      {"sequence": "QVQLVESGGGLVQAGGSLRLSCAASGSTFLTYAMGWYRQAPGKERELVAAISIAGSTYYADSVKGRFTISRDNAKNTVYLQMNSLKPEDTAVYYCAADIFERGPVPDRHNGYDYWRQGTQVTVSS", "polyreactivity (PSR sort gate)": "low polyreactivity"},
      {"sequence": "QVQLVESGGGLVQAGGSLRLSCAASGSTFLVYAMGWYRQAPGKERELVARINWRGSSTYADSVKGRFTISRDNAKNTVYLQMNSLKPEDTAVYYCNADSYRYYHPTYIYDYWGQGTQVTVSS", "polyreactivity (PSR sort gate)": "low polyreactivity"},
      {"sequence": "QVQLVESGGGLVQAGGSLRLSCAASGSTFLWYAMGWYRQAPGKERELVATISGSGGSTYYADSVKGRFTISRDNAKNTVYLQMNSLKPEDTAVYYCARDTLGGTSLGDYWGQGTQVTVSS", "polyreactivity (PSR sort gate)": "high polyreactivity"},
      {"sequence": "QVQLVESGGGLVQAGGSLRLSCAASGSTFLWYTIGWYRQAPGKERELVADISSGGTTYYADSVKGRFTISPDNAKNTVYFQMNSLKPEDTAVYFCAKTRWPYDRWKYAFGYWGQGTQVTVSS", "polyreactivity (PSR sort gate)": "high polyreactivity"},
      {"sequence": "QVQLVESGGGLVQAGGSLRLSCAASGSTFLYYAMGWSRQAPGKEMELVAAISGSGGSTYYADSVKGRFTISRDNAKNTVYLQMNSLKPEDTAVYYCNAVARRHGLGPYDYWGQGTQVTVSS", "polyreactivity (PSR sort gate)": "high polyreactivity"},
      {"sequence": "QVQLVESGGGLVQAGGSLRLSCAASGSTFLYYAMGWYRQAPGKERELVAAITWSGGRTYYADSVKGRFTISRDNAKNTVYLQMNSLKPEVTAVYYCNKAYPWLRSTALNPGLYDYWGQGTQVTVSS", "polyreactivity (PSR sort gate)": "high polyreactivity"},
      {"sequence": "QVQLVESGGGLVQAGGSLRLSCAASGSTFLYYAMGWYRQAPGKERELVARITTRVGRTYYADSVKGRFTISRDNAKNTVYLQMNSLKPEDTAVYYCAAYPDYSYYYWGQGTQVTVSS", "polyreactivity (PSR sort gate)": "high polyreactivity"},
      {"sequence": "QVQLVESGGGLVQAGGSLRLSCAASGSTFLYYAMGWYRQAPGKERELVARITTRVGRTYYADSVKGRFTISRDNAKNTVYLQMNSLNPEDTAVYYCAAYPDYSYYYWGQGTQVTVSS", "polyreactivity (PSR sort gate)": "high polyreactivity"},
      {"sequence": "QVQLVESGGGLVQAGGSLRLSCAASGSTFLYYAMGWYRQAPRKESELVATITDGGSTNYSDSVKGRFTISRDNAKNTVDLQMNSLKPEDTAVYYCAKRQWRPTYRYGYWGQGTQVTVSS", "polyreactivity (PSR sort gate)": "low polyreactivity"},
      {"sequence": "QVQLVESGGGLVQAGGSLRLSCAASGSTFLYYAMGWYRQEPGKEREFVASISGSGGSTNYADSVKGRFTISRDNAKNTVYLQMNSLKPEDTAVYYCAKEYVTEFQGYYYWGQGTQVTVSS", "polyreactivity (PSR sort gate)": "low polyreactivity"},
      {"sequence": "QVQLVESGGGLVQAGGSLRLSCAASGSTFNANAMGWYRQAPGKERELVAGISSGGSTYADSVKGRFTISRDNAKNTVYLKMNSLKPEDTAVYYCNADFYSWYPTFYWYDYWGQGTQVTVSS", "polyreactivity (PSR sort gate)": "high polyreactivity"},
      {"sequence": "QVQLVESGGGLVQAGGSLRLSCAASGSTFNAYAMGWYRQAPGKERELVADISFSGGTYYADSVKGRFTISRDNAKNTVYLQMNSLKPEDTAVYYCSAESRWRSSAGGYYYWGQGTQVTVSS", "polyreactivity (PSR sort gate)": "low polyreactivity"},
      {"sequence": "QVQLVESGGGLVQAGGSLRLSCAASGSTFNDYVMGWYRQAPGKERELVAAISRSGGSTYYADSVKGRFTISRDNAKNTVYLQMNSLNPEDTAVYYCAAASPGPWRYDYWGQGTQVTVSS", "polyreactivity (PSR sort gate)": "high polyreactivity"},
      {"sequence": "QVQLVESGGGLVQAGGSLRLSCAASGSTFNGYAMGWSRQAPGKERELVAAISWSSGSTYYADSVKGRFTISRDNAKNTVYLQMNSLKPEDTAVYYCNKYYGYHKIKEYDYWGQGTQVTVSS", "polyreactivity (PSR sort gate)": "high polyreactivity"},
      {"sequence": "QVQLVESGGGLVQAGGSLRLSCAASGSTFNGYAMGWYRQAPGKERELVAAISKRGGSTYYADSVKGRFTISRDNEKNTVYLQMNSLKPEDTAVYYCAARNPTQYLMDYWGQGTQVTVSS", "polyreactivity (PSR sort gate)": "high polyreactivity"},
      {"sequence": "QVQLVESGGGLVQAGGSLRLSCAASGSTFNGYAMGWYRQAPGKERELVAAISSDGGSTYYADSVKGRFTISRDNAKNTVYLQMNSLKPEYTAVYYCAALVYVSGYGYYYWGQGTQVTVSS", "polyreactivity (PSR sort gate)": "high polyreactivity"},
      {"sequence": "QVQLVESGGGLVQAGGSLRLSCAASGSTFNGYAMGWYRQAPGKERELVAAISWRGGSTYYADSVKGRFTISRDNAKNTVYLQMNSLKPEDTAVYYCNTLLYYGHRYYYWGQGTQVTVSS", "polyreactivity (PSR sort gate)": "high polyreactivity"},
      {"sequence": "QVQLVESGGGLVQAGGSLRLSCAASGSTFNKYTMGWYRQAPGKEREFVAAISRIGGSTYYADSVKGRFTISRDNAKNTVYLQMNSLKPEDTAVYYCATGVRPLRKKPVEFYHWGQGTQVTVSS", "polyreactivity (PSR sort gate)": "low polyreactivity"},
      {"sequence": "QVQLVESGGGLVQAGGSLRLSCAASGSTFNRNAMGWYRQAPGKERELVASISSGDNTKYADSVKGRFTISRDNAKNTVYLKMNSLKPEDTAVYYCNTVNKSLYAGLRKRWGGYYYWGQGTQVTVSS", "polyreactivity (PSR sort gate)": "high polyreactivity"},
      {"sequence": "QVQLVESGGGLVQAGGSLRLSCAASGSTFNRYAMGWYRQAPGKERELVAAISGSGSSTYYADSVKGRFTISRDNAKNTVYLQMNSLKPEDTAVYYCAAVRYEYDYWGQGTQVTVSS", "polyreactivity (PSR sort gate)": "high polyreactivity"},
      {"sequence": "QVQLVESGGGLVQAGGSLRLSCAASGSTFNRYAMGWYRQAPGKERELVAAISSRGGRTYYADSVKGRFTISRDNAKNTVYLQMNSLKPEDTAVYYCAADSSIDYDWGQGTQVTVSS", "polyreactivity (PSR sort gate)": "high polyreactivity"},
      {"sequence": "QVQLVESGGGLVQAGGSLRLSCAASGSTFNRYAMGWYRQAPGKERELVAGISYSGTRTYYADSVKGRVTISRDNAKNTVYLQMNSLKPEDTAVYYCAAVYPGPYYARRRLFYWGQGTQVTVSS", "polyreactivity (PSR sort gate)": "high polyreactivity"},
      {"sequence": "QVQLVESGGGLVQAGGSLRLSCAASGSTFNSYAMGWYRQAPGKERELVAAISWSGGSTYYADSVKGRFTISRDNAKNTVYLQMNSLKPEDPAVYYCNADYWWEYAYGVDYWGQGTQVTVSS", "polyreactivity (PSR sort gate)": "low polyreactivity"},
      {"sequence": "QVQLVESGGGLVQAGGSLRLSCAASGSTFNTYVMGWYRQAPGKERELVAAISSSGGTTYYADSVKGRFTISRDNAKNTVYLQMNSLKPEDTAVYYCNAVPKYGSRLYRYGYWGQGTQVTVSS", "polyreactivity (PSR sort gate)": "high polyreactivity"},
      {"sequence": "QVQLVESGGGLVQAGGSLRLSCAASGSTFNWNAMGWYRQAPGKERELVAAISRSGGRTSYADSVKGRFTISRDNAKNTVYLQMNSLKPEDTAVYYCAAEKVGTRPSRDYDYWGQGTQVTVSS", "polyreactivity (PSR sort gate)": "high polyreactivity"},
      {"sequence": "QVQLVESGGGLVQAGGSLRLSCAASGSTFNWNAMGWYRQAPGTERELVAAISKSGGTTYYADSVKGRFTISRDNAKNTVYFQMNSLKPEDTAVYYCAAVRRYHSYPDGGYWGQGTQVTVSS", "polyreactivity (PSR sort gate)": "high polyreactivity"},
      {"sequence": "QVQLVESGGGLVQAGGSLRLSCAASGSTFNWYAMGWYRQAPGKERELVASIRISGGSTYYADSVKGRFTISRDNAKNTVYLQMNSLKPEDTAVYYCNAKLFIRWFTYDYLGQGTQVTVSS", "polyreactivity (PSR sort gate)": "low polyreactivity"},
      {"sequence": "QVQLVESGGGLVQAGGSLRLSCAASGSTFNYNAMGWYRQAPGKERELVAAISSGASTNYADSVKGRFTISRDNAKNTVYLQMNSLKPEDTAVYYCAARSRTPGWYSTISRKMYWGQGTQVTVSS", "polyreactivity (PSR sort gate)": "high polyreactivity"},
      {"sequence": "QVQLVESGGGLVQAGGSLRLSCAASGSTFPANAMGWYRPAPGKERELVAAISSVGSTNYADSVKGRFTISRDNAKNTVYLQMNSLKPEDTAVYYCATQPTWYTVGDLDYWGQGTQVTVSS", "polyreactivity (PSR sort gate)": "low polyreactivity"},
      {"sequence": "QVQLVESGGGLVQAGGSLRLSCAASGSTFPAYAMGWYRQAPGKERELVAGISSGGRTYYADSVKGRFTISRDNAKNTVYLQMNSLKPEDTWVYYCAAFRFYWQRPERYYYWGQGTQVTVSS", "polyreactivity (PSR sort gate)": "high polyreactivity"},
      {"sequence": "QVQLVESGGGLVQAGGSLRLSCAASGSTFPDNAMGWYRQAPGKERELVAAISWSGGSTNYADSVKGRFTISRDNAKNTVYLQMNSLKPEDTAVYYCNADDASHYYFRDEYWGLGTQVTVSS", "polyreactivity (PSR sort gate)": "low polyreactivity"}
    ]}
  ]
}
